The text below walks through data of patent publication US20230174628A1 (PEKING UNIVERSITY, published 2023).

In the experiment the target is S protein (Spike) of the novel coronavirus SARS-CoV-2 (SARS-CoV-2, UniProt P0DTC2 14-1273). The experiment can be described thus: cell-based or functional assay.

B1: antigen-binding unit ABU-174 (antibody, V domains shown)
VH: QVQLQQWGAGLLKPSETLSLTCAVYGGSFSDYYWNWIRRPPGKGLEWIGEITHSGSTNYNPSLKSRVTISVDTSKNQFSLKLSSVTAADTAVYYCARGQGYGRVLLWFGEWGQGTLVTVSS
VL: EIVLTQSPATLSLSPGERATLSCRASQSVSTYLAWYQQKPGQAPRLLIYDASNRATGIPARFSGSGSGTDFTLTISSLEPEDFAVYYCQQRSNWITFGQGTRLEIK
Turning to B1, the “IC50, PRNT with SARS-CoV-2 euvirus on Vero E6 cells” value amounted to 0.5 µg/mL and the “IC50, neutralization of SARS-CoV-2 pseudovirus (Huh-7 cells, luciferase)” value came to 0.026 µg/mL.

B2: antigen-binding unit ABU-190 (antibody, V domains shown)
VH: EVQLVESGGGLIQPGGSLRLSCAASGITVSSNYMSWVRQAPGKGLEWVSVIYSGGSTDYADSVKGRFTISRDKSKNTLYLQMNSLRAEDTAVYYCARDLGEAGGMDVWGQGTTVTVSS
VL: AIQLTQSPSSLSASVGDRVTITCRASQGISSYLAWYQQKPGKAPKLLIYAASTLQSGVPSRFSGSGSGTDFTLTISSLQPEDFATYYCQQLNSYPPAFGGGTKVEIK
As to B2, the “IC50, PRNT with SARS-CoV-2 euvirus on Vero E6 cells” value was determined as 0.8 µg/mL and the “IC50, neutralization of SARS-CoV-2 pseudovirus (Huh-7 cells, luciferase)” value turned out to be 0.039 µg/mL.
